Measurements: article doi:10.1101/2021.01.30.428974

Key:
[1] = target: wild-type Murine polyomavirus VP1 (Murine polyomavirus) (UniProt P03090); assay: co-sedimentation
[2] = target: Murine polyomavirus VP1 with the putative nuclear localisation signal deleted (Murine polyomavirus) (UniProt P03090); assay: co-sedimentation

VP2C-GFP
stoichiometry N (GFP per wtVP1 VLP) [1]: 59
stoichiometry N (GFP per ΔVP1 VLP) [2]: 72
